Among the data in paper doi:10.1101/2021.03.24.436879 are Kd and donor lifetime τDA of FMAL-actin with 20 μM TMR-C0-C2^Cys225 (τD = 4.2 ns) values, retold here.

This assay deals with F-actin labeled at Cys-374 with fluorescein-5-maleimide (FMAL-actin) (rabbit) (UniProt P68135). Description: FRET or BRET. (In general: Bioluminescence resonance energy transfer reports proximity on the nanometre scale.)

The term Kd denotes the free concentration of one partner at which half of the binding sites on the other are occupied at equilibrium, for simple one-to-one binding. A low value points to tighter binding. Consider “single-cysteine C0-C2^Cys225 of human cMyBP-C labeled with tetramethylrhodamine (TMR-C0-C2^Cys225) (domain or fragment)”, for which the equilibrium dissociation constant (Kd) came out at 1000 nM and the donor lifetime τDA of FMAL-actin with 20 μM TMR-C0-C2^Cys225 (τD = 4.2 ns) turned out to be 2 ns.
“TMR-C0-C2^Cys225 of human cMyBP-C phosphorylated by PKA (domain or fragment)” had a Kd of 3000 nM.
